In patent US11491206B1, “Compositions and methods for the treatment of trail-resistant cancer” (Duke University, priority 2018, dated 2022):
Several values for one entry are separate records, joined by “and”; a condition that tells them apart may be missing. Equal values may be shown once.

B1: DRA: hexameric protein of Tn3 fibronectin type III domains (SEQ ID NO: 1) binding DR5, joined by glycine-serine linkers (protein)
chain: GAIEVKDVTDTTALITWAKPWVDPPPLWGCELTYGIKDVPGDRTTIDLQQKHTAYSIGNLKPDTEYEVSLICFDPYGMRSKPAKETFTTGGGGSGGGGSGGGGSGAIEVKDVTDTTALITWAKPWVDPPPLWGCELTYGIKDVPGDRTTIDLQQKHTAYSIGNLKPDTEYEVSLICFDPYGMRSKPAKETFTTGGGGSGGGGSGGGGSGAIEVKDVTDTTALITWAKPWVDPPPLWGCELTYGIKDVPGDRTTIDLQQKHTAYSIGNLKPDTEYEVSLICFDPYGMRSKPAKETFTTGGGGSGGGGSGGGGSGAIEVKDVTDTTALITWAKPWVDPPPLWGCELTYGIKDVPGDRTTIDLQQKHTAYSIGNLKPDTEYEVSLICFDPYGMRSKPAKETFTTGGGGSGGGGSGGGGSGAIEVKDVTDTTALITWAKPWVDPPPLWGCELTYGIKDVPGDRTTIDLQQKHTAYSIGNLKPDTEYEVSLICFDPYGMRSKPAKETFTTGGGGSGGGGSGGGGSGAIEVKDVTDTTALITWAKPWVDPPPLWGCELTYGIKDVPGDRTTIDLQQKHTAYSIGNLKPDTEYEVSLICFDPYGMRSKPAKETFTTGGGGSGGGGSGGGGSHHHHHHHH
B2: DRA monomer: single Tn3 type III fibronectin domain engineered to bind DR5 (protein)
chain: GAIEVKDVTDTTALITWAKPWVDPPPLWGCELTYGIKDVPGDRTTIDLQQKHTAYSIGNLKPDTEYEVSLICFDPYGMRSKPAKETFTT

Columns and labels:
[1] = system: HCT116, HCT15, Colo205, DLD-1, and Lovo; assay: Single-agent cytotoxicity (MTT) in TRAIL-sensitive CRC cell lines; type: cell-based, human
Description: (§1) For single-agent cytotoxicity evaluation, DRA and ELP-DRA fusion proteins were tested in vitro using a colorimetric formazan assay (MTT) as follows. […] The cells were then treated with 10 μL additional media containing a serial dilution of the drug(s) of interest. All treatments were done in triplicate. […] The inhibition of cell viability was determined using measurements of the absorbance at 490 nm, which is the absorbance maximum of the formazan product. The dose-response curves were generated by plotting inhibition as a function of compound concentration.

RKO cells [2] = assay: Single-agent cytotoxicity (MTT) in RKO; type: cell-based, human
Description: as §1

HT29 cells = assay: Single-agent cytotoxicity (MTT) in HT29; type: cell-based, human
Description: as §1

CRC12x = assay: Single-agent cytotoxicity in patient-derived CRC12x; type: cell-based, human
Description: as §1

CRC119 = assay: Single-agent cytotoxicity in patient-derived CRC119; type: cell-based, human; conditions: CRC119s
Description: as §1

CRC247 = assay: Single-agent cytotoxicity in patient-derived CRC247; type: cell-based, human
Description: as §1

RKO cells [3] = assay: Flow cytometry Annexin V apoptosis quantification in RKO; type: cell-based, human; conditions: for % positive Annexin V+: single replicate, listed as SA
Description: Flow Cytometry for Annexin-V Apoptosis Quantification. Cells were seeded in six-well plates overnight. The next day, cells were treated with the indicated amount of drug(s) or vehicle control (DMSO). Incubation time was 15 h for etoposide or 48 h for DRA alone, or DRA with sensitizers. To prepare samples for flow cytometry, each well of cells was washed twice with ice-cold PBS and resuspended in 1× annexin V binding buffer (10 mM HEPES, 140 mM NaCl, 2.5 mM CaCl2, pH 7.4) BD Biosciences). Allophycocyanin (APC)-conjugated Annexin V was used to measure surface exposure of phosphatidylserine and 7-aminoactinomycin D (7-AAD) was used as a viability probe (BD Biosciences). Cell samples were analyzed at 20,000 counts/sample using BD FACSVantage SE.

T84 = assay: Single-agent cytotoxicity (MTT) in T84; type: cell-based, human
Description: as §1

[4] = in vivo; cited from earlier work
mouse death receptor = mouse death receptor (Mus musculus, UniProt Q9QZM4); conditions: previous studies; cited from earlier work
Chain of mouse death receptor (Q9QZM4 53-381): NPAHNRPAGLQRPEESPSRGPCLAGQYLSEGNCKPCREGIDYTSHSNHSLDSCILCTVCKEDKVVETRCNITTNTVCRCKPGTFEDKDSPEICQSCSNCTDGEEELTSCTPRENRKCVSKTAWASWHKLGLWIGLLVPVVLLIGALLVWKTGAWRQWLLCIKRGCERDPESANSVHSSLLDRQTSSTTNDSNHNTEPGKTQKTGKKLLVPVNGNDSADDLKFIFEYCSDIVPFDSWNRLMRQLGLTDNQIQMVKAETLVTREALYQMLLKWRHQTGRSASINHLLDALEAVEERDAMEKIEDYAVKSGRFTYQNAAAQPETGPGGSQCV

Molecule	increase in potency of DRA compared to TRAIL (T/D fold, EC50-TRAIL/EC50-DRA) ([1]; TRAIL-sensitive cell lines)	EC50 ([1]; all tested TRAIL-sensitive cell lines)	EC50 (RKO cells [2]) [nM]	cytotoxicity (HT29 cells)	EC50 (CRC12x) [nM]	EC50 (CRC119) [nM]	cytotoxicity (CRC247)	Average % positive Annexin V+ (RKO cells [3]; 0.5 pM SA) [%]	% positive Annexin V+ (RKO cells [3]; 0.5 pM SA)	Average % positive Annexin V+ (RKO cells [3]; 1 pM SA) [%]	% positive Annexin V+ (RKO cells [3]; 1 pM SA)	cytotoxicity (T84)	half-life [4]	interaction with mouse death receptor (mouse death receptor)	induction of cell death ([1]; sensitive cell lines)
B1	70-1700 times	picomolar range	> 100	induces cytotoxicity	0.0098	0.0261	highly resistant	4.90	5.32% and 5.86% and 3.53%	6.01	6.97% and 5.22% and 5.85%	induces cytotoxicity	approximately 36 min	no interaction	–
B2	–	–	–	–	–	–	–	–	–	–	–	–	–	–	do not induce cell death
